{
  "source": "patent US20150307603A1",
  "about": "(MODIQUEST B V, published 2015)",
  "key": {"[1]": {"biological_target": "human recombinant histone 4 (human, UniProt P62805 2-103)", "assay": "ELISA, Ab 10 ug/well", "from_the_text": "(§1) The resulting OD (y-axis) is a measure for antibody binding. H1-recombinant histone 1; H1/p2-huPAD2 recombinant histone 1; H1/p4-huPAD4 recombinant histone 1, and so forth (x-axis)."}, "[2]": {"biological_target": "T1, huPAD4-deiminated human recombinant histone 3 (human)", "T1 construct": "also called H3/p4", "assay": "ELISA, Ab 10 ug/well", "from_the_text": "as §1"}, "[3]": {"biological_target": "T2, CFC-1", "T2 construct": "Positive control for anti-citrulline reactivity; also called cfc1 XG; Cfc1-peptide", "assay": "ELISA, Ab 10 ug/well", "from_the_text": "as §1"}, "[4]": {"biological_target": "T3, human recombinant histone 2A (human)", "T3 construct": "Non-deiminated; also called H2A", "assay": "ELISA, Ab 10 ug/well", "from_the_text": "as §1"}, "[5]": {"biological_target": "T4, huPAD4-deiminated human recombinant histone 2B (human)", "T4 construct": "also called H2B/p4", "assay": "ELISA, Ab 10 ug/well", "from_the_text": "as §1"}, "[6]": {"biological_target": "T5, huPAD2-deiminated human recombinant histone 2A (human)", "T5 construct": "also called H2A/p2; histone 2A/p2", "assay": "ELISA, Ab 10 ug/well", "from_the_text": "as §1"}, "[7]": {"biological_target": "T6, msVim XS/XL (mouse, also: biotin-labelled)", "T6 construct": "also called mouse vimentin peptide", "T6 peptide": "YVT[Cit]SSAV[Cit]L[Cit]SSVP", "assay": "ELISA, Ab 0.4 ug/well", "description": "(§2) Biotin and citrulline-containing peptides derived from fibrinogen and vimentin were immobilized on NEUTRAVIDIN®-coated 96-well ELISA plates (0.3 μg/well). CFC-1 and CFC-0 were coated at the same concentration and served as positive and negative controls, respectively, for specific anti-citrulline reactivity and as coating controls. Non-coated wells were used to test for aspecific binding of the antibodies. […] Detection of bound anti-citrulline antibodies was performed by incubating the wells with rabbit anti-human HRP (1:2000) for 1 hour at RT followed by incubation with TMB substrate. The resulting OD (y-axis) is a measure for antibody binding.\n(§3) Biotin-labeled and citrulline-containing fibrinogen and vimentin peptides (Table 5) were also tested for reactivity with the therapeutic antibodies. Peptides were coated on 96-well NEUTRAVIDIN®-ELISA plates."}, "[8]": {"biological_target": "T7, huFibα XG (human, X at position 8 = citrulline; biotin-labelled)", "T7 peptide": "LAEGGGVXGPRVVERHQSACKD", "assay": "ELISA, Ab 0.4 ug/well", "description": "as §2, §3"}, "[9]": {"biological_target": "T8, huFibα XH (human, X at position 15 = citrulline; biotin-labelled)", "T8 peptide": "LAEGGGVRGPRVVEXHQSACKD", "assay": "ELISA, Ab 0.4 ug/well", "description": "as §2, §3"}, "[10]": {"biological_target": "T9, msFibα XH (mouse, X at position 15 = citrulline; biotin-labelled)", "T9 peptide": "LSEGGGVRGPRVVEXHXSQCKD", "assay": "ELISA, Ab 0.4 ug/well", "description": "as §2, §3"}, "[11]": {"biological_target": "T10, msFibβ XG (mouse, also: biotin-labelled)", "T10 construct": "also called mouse fibrinogen β peptide", "T10 peptide": "EPTDSLDA[Cit]GHRPVDRR", "assay": "ELISA, Ab 0.4 ug/well", "description": "as §2, §3"}, "[12]": {"biological_target": "T2, CFC-1", "assay": "ELISA, Ab 0.4 ug/well", "description": "as §2, §3"}, "[13]": {"biological_target": "T11, msFibα XG (mouse, X at position 8 = citrulline; biotin-labelled)", "T11 peptide": "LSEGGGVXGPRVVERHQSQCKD", "assay": "ELISA, Ab 0.4 ug/well", "description": "as §2, §3"}, "[14]": {"biological_target": "T6, msVim XS/XL", "assay": "ELISA, Ab 0.016 ug/well", "description": "as §2, §3"}, "[15]": {"biological_target": "T7, huFibα XG", "assay": "ELISA, Ab 0.016 ug/well", "description": "as §2, §3"}, "[16]": {"biological_target": "T8, huFibα XH", "assay": "ELISA, Ab 0.016 ug/well", "description": "as §2, §3"}, "[17]": {"biological_target": "T9, msFibα XH", "assay": "ELISA, Ab 0.016 ug/well", "description": "as §2, §3"}, "[18]": {"biological_target": "T10, msFibβ XG", "assay": "ELISA, Ab 0.016 ug/well", "description": "as §2, §3"}, "[19]": {"biological_target": "T2, CFC-1", "assay": "ELISA, Ab 0.016 ug/well", "description": "as §2, §3"}, "[20]": {"biological_target": "T11, msFibα XG", "assay": "ELISA, Ab 0.016 ug/well", "description": "as §2, §3"}, "[21]": {"biological_target": "T12, human recombinant histone 2B (human)", "T12 construct": "Non-deiminated; also called H2B", "assay": "ELISA, Ab 0.0032 ug/well", "from_the_text": "as §1"}, "[22]": {"biological_target": "T1, huPAD4-deiminated human recombinant …", "assay": "ELISA, Ab 0.0032 ug/well", "from_the_text": "as §1"}, "[23]": {"biological_target": "T2, CFC-1", "assay": "ELISA, Ab 0.0032 ug/well", "from_the_text": "as §1"}, "[24]": {"biological_target": "T13, huPAD2-deiminated human recombinant histone 2B (human)", "T13 construct": "also called H2B/p2", "assay": "ELISA, Ab 0.0032 ug/well", "from_the_text": "as §1"}, "[25]": {"biological_target": "T4, huPAD4-deiminated human recombinant …", "assay": "ELISA, Ab 0.0032 ug/well", "from_the_text": "as §1"}, "[26]": {"biological_target": "T5, huPAD2-deiminated human recombinant …", "assay": "ELISA, Ab 0.0032 ug/well", "from_the_text": "as §1"}, "[27]": {"biological_target": "T6, msVim XS/XL", "assay": "ELISA, Ab 0.00064 ug/well", "description": "as §2, §3"}, "[28]": {"biological_target": "T7, huFibα XG", "assay": "ELISA, Ab 0.00064 ug/well", "description": "as §2, §3"}, "[29]": {"biological_target": "T8, huFibα XH", "assay": "ELISA, Ab 0.00064 ug/well", "description": "as §2, §3"}, "[30]": {"biological_target": "T9, msFibα XH", "assay": "ELISA, Ab 0.00064 ug/well", "description": "as §2, §3"}, "[31]": {"biological_target": "T10, msFibβ XG", "assay": "ELISA, Ab 0.00064 ug/well", "description": "as §2, §3"}, "[32]": {"biological_target": "T2, CFC-1", "assay": "ELISA, Ab 0.00064 ug/well", "description": "as §2, §3"}, "[33]": {"biological_target": "T11, msFibα XG", "assay": "ELISA, Ab 0.00064 ug/well", "description": "as §2, §3"}},
  "note": "Non-standard residues stand in square brackets, D forms with d. No end group written: not given here. Cit = NC(=O)NCCC[C@H](N)C(=O)O",
  "data": [
    {"binder": "RhmAb2.102 (antibody, human IgG1, lambda, Human IgG1 lambda; also called Rhm2.102) heavy: not shown light: QSVLTQPPSMSAAPGQKVTISCSGSSSNIGNNYVSWYQQVPGTAPKLLIYDDNKRPSGIPGRFSGSKSATSATLGITGLQAGDEADYYCGSWDDNLSVVLFGGGTKLTVLGQPKAAPSVTLFPPSSEELQANKATLVCLISDFYPGAVTVAWKADSSPVKAGVETTTPSKQSNNKYAASSYLSLTPEQWKSHRSYSCQVTHEGSTVEKTVAPTECS", "values": [
      {"measurement": "OD", "setting": "[1]", "result": 0.825, "unit": "OD450"},
      {"measurement": "OD", "setting": "[2]", "result": 1.31, "unit": "OD450"},
      {"measurement": "OD", "setting": "[3]", "result": 3.48, "unit": "OD450"},
      {"measurement": "OD", "setting": "[4]", "result": 0.428, "unit": "OD450"},
      {"measurement": "OD", "setting": "[5]", "result": 0.229, "unit": "OD450"},
      {"measurement": "OD", "setting": "[6]", "result": 3.41, "unit": "OD450"},
      {"measurement": "OD", "setting": "[7]", "result": 1.45, "unit": "OD450"},
      {"measurement": "OD", "setting": "[8]", "result": 0.521, "unit": "OD450"},
      {"measurement": "OD", "setting": "[9]", "result": 0.09, "unit": "OD450"},
      {"measurement": "OD", "setting": "[10]", "result": 0.076, "unit": "OD450"},
      {"measurement": "OD", "setting": "[11]", "result": 1.67, "unit": "OD450"},
      {"measurement": "OD", "setting": "[12]", "result": 3.79, "unit": "OD450"},
      {"measurement": "OD", "setting": "[13]", "result": 0.773, "unit": "OD450"},
      {"measurement": "OD", "setting": "[14]", "result": 0.201, "unit": "OD450"},
      {"measurement": "OD", "setting": "[15]", "result": 0.103, "unit": "OD450"},
      {"measurement": "OD", "setting": "[16]", "result": 0.08, "unit": "OD450"},
      {"measurement": "OD", "setting": "[17]", "result": 0.081, "unit": "OD450"},
      {"measurement": "OD", "setting": "[18]", "result": 0.174, "unit": "OD450"},
      {"measurement": "OD", "setting": "[19]", "result": 1.22, "unit": "OD450"},
      {"measurement": "OD", "setting": "[20]", "result": 0.107, "unit": "OD450"},
      {"measurement": "OD", "setting": "[21]", "result": 0.05, "unit": "OD450"},
      {"measurement": "OD", "setting": "[22]", "result": 0.065, "unit": "OD450"},
      {"measurement": "OD", "setting": "[23]", "result": 0.178, "unit": "OD450"},
      {"measurement": "OD", "setting": "[24]", "result": 0.052, "unit": "OD450"},
      {"measurement": "OD", "setting": "[25]", "result": 0.052, "unit": "OD450"},
      {"measurement": "OD", "setting": "[26]", "result": 0.161, "unit": "OD450"},
      {"measurement": "OD", "setting": "[27]", "result": 0.154, "unit": "OD450"},
      {"measurement": "OD", "setting": "[28]", "result": 0.125, "unit": "OD450"},
      {"measurement": "OD", "setting": "[29]", "result": 0.124, "unit": "OD450"},
      {"measurement": "OD", "setting": "[30]", "result": 0.088, "unit": "OD450"},
      {"measurement": "OD", "setting": "[31]", "result": 0.133, "unit": "OD450"},
      {"measurement": "OD", "setting": "[32]", "result": 0.345, "unit": "OD450"},
      {"measurement": "OD", "setting": "[33]", "result": 0.116, "unit": "OD450"}
    ]}
  ]
}
